Data on eight molecules can be found in patent US20180127505A1, “HUMANIZED ANTI-AXL ANTIBODIES AND THEIR CONJUGATES” (MEDIMMUNE LIMITED, priority 2015, published 2018).

In one assay the target is T1, AXL on MDA-MB-231 cells (UniProt P30530 26-894, limits assumed).
T1 sequence (looked up): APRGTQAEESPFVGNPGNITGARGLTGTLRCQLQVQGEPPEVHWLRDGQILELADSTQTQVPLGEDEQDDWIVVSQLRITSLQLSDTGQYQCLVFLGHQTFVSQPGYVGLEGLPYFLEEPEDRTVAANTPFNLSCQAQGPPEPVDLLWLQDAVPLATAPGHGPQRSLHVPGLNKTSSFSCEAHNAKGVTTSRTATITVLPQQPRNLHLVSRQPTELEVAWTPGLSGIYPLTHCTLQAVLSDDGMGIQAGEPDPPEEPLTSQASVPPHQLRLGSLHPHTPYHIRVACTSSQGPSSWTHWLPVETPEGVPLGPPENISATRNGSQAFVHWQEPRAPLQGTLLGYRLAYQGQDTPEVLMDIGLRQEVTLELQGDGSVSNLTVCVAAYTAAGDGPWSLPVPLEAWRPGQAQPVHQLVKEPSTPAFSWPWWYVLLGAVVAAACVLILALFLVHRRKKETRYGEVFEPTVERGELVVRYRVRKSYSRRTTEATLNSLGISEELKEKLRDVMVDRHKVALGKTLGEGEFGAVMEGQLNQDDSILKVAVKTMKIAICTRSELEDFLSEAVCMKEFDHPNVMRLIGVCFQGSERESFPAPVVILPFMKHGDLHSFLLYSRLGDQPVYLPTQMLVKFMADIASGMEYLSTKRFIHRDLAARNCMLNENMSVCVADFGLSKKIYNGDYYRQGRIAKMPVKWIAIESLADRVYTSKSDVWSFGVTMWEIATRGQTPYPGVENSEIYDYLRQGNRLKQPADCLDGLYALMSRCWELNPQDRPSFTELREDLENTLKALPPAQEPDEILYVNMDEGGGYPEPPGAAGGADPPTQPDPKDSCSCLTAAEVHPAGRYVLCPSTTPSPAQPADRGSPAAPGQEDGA
Briefly: cell-based or functional assay.

Assay [1] has as its target T2, Human Axl-Fc chimera (R&D Systems #154-AL) (human, UniProt P30530 26-451).
T2 construct: Bought reagent; also called Axl-Fc antigen; AXL-Fc chimera antigen; Fc part of the bought chimera not given
T2 sequence: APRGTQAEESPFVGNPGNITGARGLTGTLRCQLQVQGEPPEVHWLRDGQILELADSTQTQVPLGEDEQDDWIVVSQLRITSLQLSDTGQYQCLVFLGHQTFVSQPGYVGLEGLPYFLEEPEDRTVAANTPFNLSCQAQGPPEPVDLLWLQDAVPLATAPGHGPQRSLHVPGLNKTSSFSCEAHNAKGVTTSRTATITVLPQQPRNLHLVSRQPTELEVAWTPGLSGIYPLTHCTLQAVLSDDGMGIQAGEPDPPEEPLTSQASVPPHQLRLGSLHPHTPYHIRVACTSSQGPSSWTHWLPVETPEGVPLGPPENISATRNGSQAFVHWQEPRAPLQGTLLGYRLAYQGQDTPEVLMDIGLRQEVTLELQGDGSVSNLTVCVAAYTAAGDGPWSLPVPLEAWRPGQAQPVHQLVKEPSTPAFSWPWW
Briefly: SPR (Biacore T200), AXL-Fc amine-coupled to CM5 chip, antibody as analyte, bivalent model.

In assay [2] the target is T3, Human AXL-Strep-His (produced by Evitria AG in transiently transfected CHO cells) (human, UniProt P30530 26-451, limits assumed).
T3 construct: also called Axl-Strep-His antigen; human AxI-Strep-His; not shown: Strep and His tags
T3 sequence: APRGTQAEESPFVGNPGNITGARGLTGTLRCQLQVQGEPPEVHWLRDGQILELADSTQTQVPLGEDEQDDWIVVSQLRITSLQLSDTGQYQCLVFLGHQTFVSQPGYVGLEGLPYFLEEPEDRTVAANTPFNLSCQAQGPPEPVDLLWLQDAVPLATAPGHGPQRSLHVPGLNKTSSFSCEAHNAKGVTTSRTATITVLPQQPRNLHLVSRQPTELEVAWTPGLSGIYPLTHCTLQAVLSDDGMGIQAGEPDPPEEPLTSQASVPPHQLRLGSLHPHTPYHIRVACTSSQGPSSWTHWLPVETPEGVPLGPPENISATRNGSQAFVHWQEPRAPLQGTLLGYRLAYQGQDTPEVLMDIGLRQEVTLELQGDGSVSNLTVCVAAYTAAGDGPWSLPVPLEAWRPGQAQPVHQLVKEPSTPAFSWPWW
Briefly: SPR (Biacore T200), AXL-Strep-His amine-coupled to CM5 chip, antibody as analyte, heterogeneous ligand model. Background: SPR reads the build-up and loss of mass on a sensor chip optically.

Assay [3] deals with T3, Human AXL-Strep-His (produced by …). Briefly: ELISA on plate-coated human AXL-Strep-His (Protocol 4), OD 450nm against Log10[IgG (µg/mL)] [A. Human Axl]. (ELISA stands for enzyme-linked immunosorbent assay.)
Assay [4] shares this target. Briefly: human AXL ELISA (Protocol 4), untreated antibody of the accelerated stability analysis, OD 450nm against Log10[IgG (µg/mL)].
The target of the next assay is T4, Cynomolgus monkey AXL (Macaca fascicularis, UniProt A0A2K5WXE0).
T4 construct: form not described
T4 sequence (antigen): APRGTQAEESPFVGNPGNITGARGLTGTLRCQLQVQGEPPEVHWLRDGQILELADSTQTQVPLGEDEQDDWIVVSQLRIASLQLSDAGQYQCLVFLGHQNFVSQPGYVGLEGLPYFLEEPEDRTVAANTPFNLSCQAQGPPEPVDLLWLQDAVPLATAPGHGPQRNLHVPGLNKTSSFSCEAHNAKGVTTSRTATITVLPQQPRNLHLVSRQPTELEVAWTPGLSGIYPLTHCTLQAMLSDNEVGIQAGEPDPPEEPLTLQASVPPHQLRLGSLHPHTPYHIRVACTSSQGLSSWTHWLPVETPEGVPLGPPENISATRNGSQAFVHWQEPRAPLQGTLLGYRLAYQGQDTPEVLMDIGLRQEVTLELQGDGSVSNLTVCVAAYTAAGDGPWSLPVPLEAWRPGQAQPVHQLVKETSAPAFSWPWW
Briefly: ELISA on cynomolgus monkey AXL (coating antigen not described in the text), OD 450nm against Log10[IgG (µg/mL)] [B. Cynomolgus monkey AXL].

In assay [5] the target is T3, Human AXL-Strep-His (produced by …). Briefly: SPR (Biacore T200), AXL-Strep-His amine-coupled to CM5 chip, antibody as analyte, heterogeneous ligand model; column head KD1; heterogeneous ligand model; AXL-Strep-His antigen.
For assay [6] the target is unchanged. Briefly: SPR (Biacore T200), AXL-Strep-His amine-coupled to CM5 chip, antibody as analyte, bivalent model.
Assay [7] has the same target. Briefly: SPR (Biacore T200), AXL-Strep-His amine-coupled to CM5 chip, antibody as analyte, bivalent model; column head KD1.

B1: Ab1-ConjE (Ab1 conjugated to the ConjE PBD payload, DAR 2.2) (other)
VH: EVQLVESGGDLVKPGGSLKLSCAASGFTFSSYGMSWVRQTPDKRLEWVATISSGGSYTYYPDSVKGRFTISRDNAKNTLYLQMSSLKSEDTAMYYCARHPIYYTYDDTMDYWGQGTSVTVSS
VL: ENVLTQSPAIMAASPGEKVTMTCSASSSVSSGNFHWYQQKPGTSPKLWIYRTSNLASGVPARFSGSGSGTSYSLTISSMEAEDAATYYCQQWSGYPWTFGGGTKLEIK
modifications: ConjE PBD drug-linker on cysteine thiol(s) of the antibody, sites not stated; DAR 2.2
For the molecule B1, the “GI50 (pg/ml), MDA-MB-231 cytotoxicity, MTS assay, 5 days” value (shortened to “GI50 (pg/ml), MDA-MB-231 cytotoxicity”) with AXL on MDA-MB-231 cells was 6.95 pg/mL.

B2: Ab1, anti-AXL antibody comprising the murine 1H12 VH (SEQ ID NO. 1) and VL (SEQ ID NO. 4) and a constant region derived from one or more human antibodies (antibody, V domains shown)
VH: EVQLVESGGDLVKPGGSLKLSCAASGFTFSSYGMSWVRQTPDKRLEWVATISSGGSYTYYPDSVKGRFTISRDNAKNTLYLQMSSLKSEDTAMYYCARHPIYYTYDDTMDYWGQGTSVTVSS
VL: ENVLTQSPAIMAASPGEKVTMTCSASSSVSSGNFHWYQQKPGTSPKLWIYRTSNLASGVPARFSGSGSGTSYSLTISSMEAEDAATYYCQQWSGYPWTFGGGTKLEIK
notes: also called Abl; chimeric 1H12
One may read the koff as the first-order rate constant of dissociation. One may read the kon as a measure of how fast the partners come together. The term EC50 (read off the curve) denotes the concentration at which the effect is half-maximal. In the case of B2, the Kd in assay [1] came to 4.6 nM; in [5], 40.7 nM. Also, the dissociation rate constant (koff) came to 0.000142 s⁻¹ in assay [1] and 0.000533 s⁻¹ in assay [2]. The kon in [1] worked out at 30900 M⁻¹ s⁻¹; in [2], 13100 M⁻¹ s⁻¹. The “EC50 (read off the curve)” value in assay [3] is about 0.03 µg/mL; in assay [4] it was about 0.01 µg/mL; in the assay with Cynomolgus monkey AXL, about 0.02 µg/mL.

B3: Ab2-ConjE (Ab2 conjugated to the ConjE PBD payload, DAR 2.4) (other)
VH: MGFKMESQFQVFVFVFLWLSGVDGQVQLVESGGGVVQPGRSLRLSCAASGFTFSSYGMSVRQAPGKGLEWVATISSGGSYTYYPDSVKGRFTISRDNSKNTLYLQMNSLRAEDTAVYYCARHPIYYTYDDTMDYWGQGTTVTVSS
VL: EIVLTQSPATLSLSPGERATLSCSASSSVSSGNFHWYQQKPGLAPRLLIYRTSNLASGIPDRFSGSGSGTDFTLTISRLEPEDFAVYYCQQWSGYPWTFGPGTKVDIK
modifications: ConjE PBD drug-linker on cysteine thiol(s) of the antibody, sites not stated; DAR 2.4
For B3, in the assay with AXL on MDA-MB-231 cells, the “GI50 (pg/ml), MDA-MB-231 cytotoxicity” value was found to be 73 pg/mL.

B4: Ab4, anti-AXL antibody comprising VH SEQ ID NO. 3 and VL SEQ ID NO. 5 and a constant region derived from one or more human antibodies (antibody, V domains shown)
VH: EVQLVESGGGLVQPGGSLRLSCAASGFTFSSYGMSWVRQAPGKGLEWVATISSGGSYTYYPDSVKGRFTISRDNAKNSLYLQMNSLRAEDTAVYYCARHPIYYTYDDTMDYWGQGTLVTVSS
VL: EIVLTQSPATLSLSPGERATLSCSASSSVSSGNFHWYQQKPGLAPRLLIYRTSNLASGIPDRFSGSGSGTDFTLTISRLEPEDFAVYYCQQWSGYPWTFGPGTKVDIK
Consider B4, for which the Kd in assay [1] was found to be 1.37 nM; in [7], 60.4 nM. For the same molecule, the koff in [1] was determined as 0.000396 s⁻¹; in assay [6], 0.00059 s⁻¹. Also, the kon in assay [1] was 290000 M⁻¹ s⁻¹; in assay [6], 9760 M⁻¹ s⁻¹. Further, the “EC50 (read off the curve)” value is about 0.03 µg/mL in assay [3], about 0.02 µg/mL in assay [4] and about 0.02 µg/mL with Cynomolgus monkey AXL.

B5: Ab4-ConjE (Ab4 conjugated to the ConjE PBD payload, DAR 2.6) (other)
VH: EVQLVESGGGLVQPGGSLRLSCAASGFTFSSYGMSWVRQAPGKGLEWVATISSGGSYTYYPDSVKGRFTISRDNAKNSLYLQMNSLRAEDTAVYYCARHPIYYTYDDTMDYWGQGTLVTVSS
VL: EIVLTQSPATLSLSPGERATLSCSASSSVSSGNFHWYQQKPGLAPRLLIYRTSNLASGIPDRFSGSGSGTDFTLTISRLEPEDFAVYYCQQWSGYPWTFGPGTKVDIK
modifications: ConjE PBD drug-linker on cysteine thiol(s) of the antibody, sites not stated; DAR 2.6
B5: in the assay with AXL on MDA-MB-231 cells, the “GI50 (pg/ml), MDA-MB-231 cytotoxicity” value worked out at 64.2 pg/mL.

B6: Ab5-ConjE (Ab5 conjugated to the ConjE PBD payload, DAR 2.3) (other)
VH: EVQLVESGGGLVQPGGSLRLSCAASGFTFSSYGMSWVRQAPGKGLEWVATISSGGSYTYYPDSVKGRFTISRDNAKNSLYLQMNSLRAEDTAVYYCARHPIYYTYDDTMDYWGQGTLVTVSS
VL: EIVLTQSPGTLSLSPGERATLSCSASSSVSSGNFHWYQQKPGLAPRLLIYRTSNLASGIPARFSGSGSGTDFTLTISSLEPEDFAVYYCQQWSGYPWTFGGGTKLEIK
modifications: ConjE PBD drug-linker on cysteine thiol(s) of the antibody, sites not stated; DAR 2.3
Take B6: in the assay with AXL on MDA-MB-231 cells, the “GI50 (pg/ml), MDA-MB-231 cytotoxicity” value was 44 pg/mL.

B7: Ab3-ConjE (Ab3 conjugated to the ConjE PBD payload, DAR 2.2) (other)
VH: MGFKMESQFQVFVFVFLWLSGVDGQVQLVESGGGVVQPGRSLRLSCAASGFTFSSYGMSVRQAPGKGLEWVATISSGGSYTYYPDSVKGRFTISRDNSKNTLYLQMNSLRAEDTAVYYCARHPIYYTYDDTMDYWGQGTTVTVSS
VL: EIVLTQSPGTLSLSPGERATLSCSASSSVSSGNFHWYQQKPGLAPRLLIYRTSNLASGIPARFSGSGSGTDFTLTISSLEPEDFAVYYCQQWSGYPWTFGGGTKLEIK
modifications: ConjE PBD drug-linker on cysteine thiol(s) of the antibody, sites not stated; DAR 2.2
In the case of B7, in the assay with AXL on MDA-MB-231 cells, the “GI50 (pg/ml), MDA-MB-231 cytotoxicity” value stood at 27.6 pg/mL.

B8: Ab5, anti-AXL antibody comprising VH SEQ ID NO. 3 and VL SEQ ID NO. 7 and a constant region derived from one or more human antibodies (antibody, V domains shown)
VH: EVQLVESGGGLVQPGGSLRLSCAASGFTFSSYGMSWVRQAPGKGLEWVATISSGGSYTYYPDSVKGRFTISRDNAKNSLYLQMNSLRAEDTAVYYCARHPIYYTYDDTMDYWGQGTLVTVSS
VL: EIVLTQSPGTLSLSPGERATLSCSASSSVSSGNFHWYQQKPGLAPRLLIYRTSNLASGIPARFSGSGSGTDFTLTISSLEPEDFAVYYCQQWSGYPWTFGGGTKLEIK
With B8, the Kd in [1] was 7.69 nM; in assay [7], 23 nM. For the same molecule, the koff in assay [1] stood at 0.000159 s⁻¹; in [6], 0.000435 s⁻¹. In addition, the kon in assay [1] is 20600 M⁻¹ s⁻¹; in assay [6], 18900 M⁻¹ s⁻¹. The “EC50 (read off the curve)” value is about 0.02 µg/mL in [4] and about 0.03 µg/mL with Cynomolgus monkey AXL.
